In assay [1] the target is T1, HCV ORFs (Gal4-DB fusions) (Hepatitis C virus genotype 1b, UniProt Q9WMX2).
T1 construct: expressed in transfected cells; host or cells: Saccharomyces cerevisiae MAV203 (IMAP1) / AH109 (IMAP2)
The format is binding, HCV genotype 1b, isolate con1. The conditions noted are these: human protein as prey.

Assay [2] concerns HCV ORFs (Gal4-DB fusions). The format is binding, HCV genotype 1b, isolate con1. Conditions: human protein listed by gene symbol; the value names the HCV protein it interacts with.
Assay [3] concerns the target T2, HCV proteins (Hepatitis C virus genotype 1b, UniProt Q9WMX2).
T2 construct: expressed in transfected cells
As to the kind of experiment: Validation by Y2H pairwise matrices.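 Note: yeast two-hybrid pairwise tests of interactions first found in Y2H screens of HCV bait proteins against human cDNA libraries.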 The format is binding.

Setting [4] is: validation of interaction with HCV protein NS3.

Like-named read-outs stand apart in the source and are kept apart here.
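Throughout, for IMAP Y2H IMAP1 (number of IST): yeast two-hybrid screens using HCV genotype 1b proteins fused to Gal4-DB as baits against prey cDNA libraries from human spleen and foetal brain, IMAP1 via transformation and IMAP2 via mating.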
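Throughout, for Interaction with viral protein: yeast two-hybrid screens using HCV genotype 1b proteins fused to Gal4-DB as baits against prey cDNA libraries from human spleen and foetal brain, IMAP1 via transformation and IMAP2 via mating.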

B1: FES (protein, UniProt P07332 1-822, looked up)
Tyrosine-protein kinase …: MGFSSELCSPQGHGVLQQMQEAELRLLEGMRKWMAQRVKSDREYAGLLHHMSLQDSGGQSRAISPDSPISQSWAEITSQTEGLSRLLRQHAEDLNSGPLSKLSLLIRERQQLRKTYSEQWQQLQQELTKTHSQDIEKLKSQYRALARDSAQAKRKYQEASKDKDRDKAKDKYVRSLWKLFAHHNRYVLGVRAAQLHHQHHHQLLLPGLLRSLQDLHEEMACILKEILQEYLEISSLVQDEVVAIHREMAAAAARIQPEAEYQGFLRQYGSAPDVPPCVTFDESLLEEGEPLEPGELQLNELTVESVQHTLTSVTDELAVATEMVFRRQEMVTQLQQELRNEEENTHPRERVQLLGKRQVLQEALQGLQVALCSQAKLQAQQELLQTKLEHLGPGEPPPVLLLQDDRHSTSSSEQEREGGRTPTLEILKSHISGIFRPKFSLPPPLQLIPEVQKPLHEQLWYHGAIPRAEVAELLVHSGDFLVRESQGKQEYVLSVLWDGLPRHFIIQSLDNLYRLEGEGFPSIPLLIDHLLSTQQPLTKKSGVVLHRAVPKDKWVLNHEDLVLGEQIGRGNFGEVFSGRLRADNTLVAVKSCRETLPPDLKAKFLQEARILKQYSHPNIVRLIGVCTQKQPIYIVMELVQGGDFLTFLRTEGARLRVKTLLQMVGDAAAGMEYLESKCCIHRDLAARNCLVTEKNVLKISDFGMSREEADGVYAASGGLRQVPVKWTAPEALNYGRYSSESDVWSFGILLWETFSLGASPYPNLSNQQTREFVEKGGRLPCPELCPDAVFRLMEQCWAYEPGQRPSFSTIYQELQSIRKRHR
B1: the “IMAP Y2H IMAP1 (number of IST)” value in assay [1] (HCV protein NS3 as bait) worked out at 1. Moreover, the “Interaction with viral protein” value in assay [2] was “NS3”. The Y2H matrices result in assay [3] (setting [4]) is “+”.

B2: FIGNL1 (protein, UniProt Q6PIW4 1-674, looked up)
Fidgetin-like protein 1: MQTSSSRSVHLSEWQKNYFAITSGICTGPKADAYRAQILRIQYAWANSEISQVCATKLFKKYAEKYSAIIDSDNVESGLNNYAENILTLAGSQQTDSDKWQSGLSINNVFKMSSVQKMMQAGKKFKDSLLEPALASVVIHKEATVFDLPKFSVCGSSQESDSLPNSAHDRDRTQDFPESNRLKLLQNAQPPMVTNTARTCPTFSAPVGESATAKFHVTPLFGNVKKENHSSAKENIGLNVFLSNQSCFPAACENPQRKSFYGSGTIDALSNPILNKACSKTEDNGPKEDSSLPTFKTAKEQLWVDQQKKYHQPQRASGSSYGGVKKSLGASRSRGILGKFVPPIPKQDGGEQNGGMQCKPYGAGPTEPAHPVDERLKNLEPKMIELIMNEIMDHGPPVNWEDIAGVEFAKATIKEIVVWPMLRPDIFTGLRGPPKGILLFGPPGTGKTLIGKCIASQSGATFFSISASSLTSKWVGEGEKMVRALFAVARCQQPAVIFIDEIDSLLSQRGDGEHESSRRIKTEFLVQLDGATTSSEDRILVVGATNRPQEIDEAARRRLVKRLYIPLPEASARKQIVINLMSKEQCCLSEEEIEQIVQQSDAFSGADMTQLCREASLGPIRSLQTADIATITPDQVRPIAYIDFENAFRTVRPSVSPKDLELYENWNKTFGCGK
As for B2, the “IMAP Y2H IMAP1 (number of IST)” value in assay [1] (HCV protein NS3 as bait) is 1. Also, in assay [2], the “Interaction with viral protein” value is “NS3”. Moreover, the Y2H matrices entry in assay [3] (setting [4]) was “+”.

B3: FAM120B (protein, UniProt Q96EK7 1-910, looked up)
Constitutive coactivator of …: MGVRGLQGFVGSTCPHICTVVNFKELAEHHRSKYPGCTPTIVVDAMCCLRYWYTPESWICGGQWREYFSALRDFVKTFTAAGIKLIFFFDGMVEQDKRDEWVKRRLKNNREISRIFHYIKSHKEQPGRNMFFIPSGLAVFTRFALKTLGQETLCSLQEADYEVASYGLQHNCLGILGEDTDYLIYDTCPYFSISELCLESLDTVMLCREKLCESLGLCVADLPLLACLLGNDIIPEGMFESFRYKCLSSYTSVKENFDKKGNIILAVSDHISKVLYLYQGEKKLEEILPLGPNKALFYKGMASYLLPGQKSPWFFQKPKGVITLDKQVISTSSDAESREEVPMCSDAESRQEVPMCTGPESRREVPVYTDSEPRQEVPMCSDPEPRQEVPTCTGPESRREVPMCSDPEPRQEVPMCTGPEARQEVPMYTDSEPRQEVPMYTDSEPRQEVPMYTGSEPRQEVPMYTGPESRQEVPMYTGPESRQEVLIRTDPESRQEIMCTGHESKQEVPICTDPISKQEDSMCTHAEINQKLPVATDFEFKLEALMCTNPEIKQEDPTNVGPEVKQQVTMVSDTEILKVARTHHVQAESYLVYNIMSSGEIECSNTLEDELDQALPSQAFIYRPIRQRVYSLLLEDCQDVTSTCLAVKEWFVYPGNPLRHPDLVRPLQMTIPGGTPSLKILWLNQEPEIQVRRLDTLLACFNLSSSREELQAVESPFQALCCLLIYLFVQVDTLCLEDLHAFIAQALCLQGKSTSQLVNLQPDYINPRAVQLGSLLVRGLTTLVLVNSACGFPWKTSDFMPWNVFDGKLFHQKYLQSEKGYAVEVLLEQNRSRLTKFHNLKAVVCKACMKENRRITGRAHWGSHHAGRWGRQGSSYHRTGSGYSRSSQGQPWRDQGPGSRQYEHDQWRRY
Take B3: the “IMAP Y2H IMAP1 (number of IST)” value in assay [1] (HCV protein NS3 as bait) was found to be 1. Besides, the “Interaction with viral protein” value in assay [2] is listed as “NS3”. The Y2H matrices result in assay [3] (setting [4]) is on record as “+”.

B4: FBLN1 (protein, UniProt P23142 30-703, looked up)
Fibulin-1: DVLLEACCADGHRMATHQKDCSLPYATESKECRMVQEQCCHSQLEELHCATGISLANEQDRCATPHGDNASLEATFVKRCCHCCLLGRAAQAQGQSCEYSLMVGYQCGQVFQACCVKSQETGDLDVGGLQETDKIIEVEEEQEDPYLNDRCRGGGPCKQQCRDTGDEVVCSCFVGYQLLSDGVSCEDVNECITGSHSCRLGESCINTVGSFRCQRDSSCGTGYELTEDNSCKDIDECESGIHNCLPDFICQNTLGSFRCRPKLQCKSGFIQDALGNCIDINECLSISAPCPIGHTCINTEGSYTCQKNVPNCGRGYHLNEEGTRCVDVDECAPPAEPCGKGHRCVNSPGSFRCECKTGYYFDGISRMCVDVNECQRYPGRLCGHKCENTLGSYLCSCSVGFRLSVDGRSCEDINECSSSPCSQECANVYGSYQCYCRRGYQLSDVDGVTCEDIDECALPTGGHICSYRCINIPGSFQCSCPSSGYRLAPNGRNCQDIDECVTGIHNCSINETCFNIQGGFRCLAFECPENYRRSAATLQQEKTDTVRCIKSCRPNDVTCVFDPVHTISHTVISLPTFREFTRPEEIIFLRAITPPHPASQANIIFDITEGNLRDSFDIIKRYMDGMTVGVVRQVRPIVGPFHAVLKLEMNYVVGGVVSHRNVVNVHIFVSEYWF
B4: in assay [1] (HCV protein NS3 as bait), the “IMAP Y2H IMAP1 (number of IST)” value came out at 8. Besides, the “Interaction with viral protein” value in assay [2] is “NS3”. Further, the Y2H matrices entry in assay [3] (setting [4]) was “+”.

B5: EFEMP2 (protein, UniProt O95967 24-443, looked up)
EGF-containing fibulin-like …: SASPQDSEEPDSYTECTDGYEWDPDSQHCRDVNECLTIPEACKGEMKCINHYGGYLCLPRSAAVINDLHGEGPPPPVPPAQHPNPCPPGYEPDDQDSCVDVDECAQALHDCRPSQDCHNLPGSYQCTCPDGYRKIGPECVDIDECRYRYCQHRCVNLPGSFRCQCEPGFQLGPNNRSCVDVNECDMGAPCEQRCFNSYGTFLCRCHQGYELHRDGFSCSDIDECSYSSYLCQYRCINEPGRFSCHCPQGYQLLATRLCQDIDECESGAHQCSEAQTCVNFHGGYRCVDTNRCVEPYIQVSENRCLCPASNPLCREQPSSIVHRYMTITSERSVPADVFQIQATSVYPGAYNAFQIRAGNSQGDFYIRQINNVSAMLVLARPVTGPREYVLDLEMVTMNSLMSYRASSVLRLTVFVGAYTF
Take B5: the “IMAP Y2H IMAP1 (number of IST)” value in assay [1] (HCV protein NS3 as bait) is given as 3. Further, in assay [2], the “Interaction with viral protein” value is “NS3”. The Y2H matrices result in assay [3] (setting [4]) is reported as “+”.

B6: FBLN5 (protein, UniProt Q9UBX5 24-448, looked up)
Fibulin-5: QAQCTNGFDLDRQSGQCLDIDECRTIPEACRGDMMCVNQNGGYLCIPRTNPVYRGPYSNPYSTPYSGPYPAAAPPLSAPNYPTISRPLICRFGYQMDESNQCVDVDECATDSHQCNPTQICINTEGGYTCSCTDGYWLLEGQCLDIDECRYGYCQQLCANVPGSYSCTCNPGFTLNEDGRSCQDVNECATENPCVQTCVNTYGSFICRCDPGYELEEDGVHCSDMDECSFSEFLCQHECVNQPGTYFCSCPPGYILLDDNRSCQDINECEHRNHTCNLQQTCYNLQGGFKCIDPIRCEEPYLRISDNRCMCPAENPGCRDQPFTILYRDMDVVSGRSVPADIFQMQATTRYPGAYYIFQIKSGNEGREFYMRQTGPISATLVMTRPIKGPREIQLDLEMITVNTVINFRGSSVIRLRIYVSQYPF
Turning to B6, the “IMAP Y2H IMAP1 (number of IST)” value in assay [1] (HCV protein CORE as bait) was found to be 1; in assay [1] (HCV protein NS2 as bait), 1; in assay [1] (HCV protein NS3 as bait) it was 32. Besides, the “Interaction with viral protein” value in assay [2] is “CORE and NS3 and NS2”. In addition, the Y2H matrices entry in assay [3] (validation of interaction with HCV protein CORE), in assay [3] (validation of interaction with HCV protein NS2) and in assay [3] (setting [4]) was “+” in each case.

(Values after patent US20110091994A1, “Methods for Screening Compounds for Treating and/or Preventing an Hepatitis C Virus Infection” (priority 2008, published 2011).)
